Assay results taken from paper PMC10216903, “Implication of the Transmembrane Domain in the Interleukin 10 Receptor Platform Oligomerisation” (Cells, 2023).

B1: IL-10Rα, full-length subunit of the interleukin 10 receptor (receptor, UniProt Q61727 17-575, looked up)
chain: LEFIAYGTELPSPSYVWFEARFFQHILHWKPIPNQSESTYYEVALKQYGNSTWNDIHICRKAQALSCDLTTFTLDLYHRSYGYRARVRAVDNSQYSNWTTTETRFTVDEVILTVDSVTLKAMDGIIYGTIHPPRPTITPAGDEYEQVFKDLRVYKISIRKFSELKNATKRVKQETFTLTVPIGVRKFCVKVLPRLESRINKAEWSEEQCLLITTEQYFTVTNLSILVISMLLFCGILVCLVLQWYIRHPGKLPTVLVFKKPHDFFPANPLCPETPDAIHIVDLEVFPKVSLELRDSVLHGSTDSGFGSGKPSLQTEESQFLLPGSHPQIQGTLGKEESPGLQATCGDNTDSGICLQEPGLHSSMGPAWKQQLGYTHQDQDDSDVNLVQNSPGQPKYTQDASALGHVCLLEPKAPEEKDQVMVTFQGYQKQTRWKAEAAGPAECLDEEIPLTDAFDPELGVHLQDDLAWPPPALAAGYLKQESQGMASAPPGTPSRQWNQLTEEWSLLGVVSCEDLSIESWRFAHKLDPLDCGAAPGGLLDSLGSNLVTLPLISSLQVEE
notes: Interleukin 10 receptor subunit alpha, full length; One tag per copy: Rluc fusion as donor, eYFP fusion as acceptor (plasmids pRL-CMV and pEYFP-N1); also called IL-10Rα_FL; full-length IL-10Rα; source: HEK293, transfected, in living cells
B2: IL-10Rβ, full-length subunit of the interleukin 10 receptor (receptor, UniProt Q61190 20-349, looked up)
chain: MIPPPEKVRMNSVNFKNILQWEVPAFPKTNLTFTAQYESYRSFQDHCKRTASTQCDFSHLSKYGDYTVRVRAELADEHSEWVNVTFCPVEDTIIGPPEMQIESLAESLHLRFSAPQIENEPETWTLKNIYDSWAYRVQYWKNGTNEKFQVVSPYDSEVLRNLEPWTTYCIQVQGFLLDQNRTGEWSEPICERTGNDEITPSWIVAIILIVSVLVVFLFLLGCFVVLWLIYKKTKHTFRSGTSLPQHLKEFLGHPHHSTFLLFSFPPPEEAEVFDKLSIISEESEGSKQSPEDNCASEPPSDPGPRELESKDEAPSPPHDDPKLLTSTSEV
notes: Interleukin 10 receptor subunit beta, full length; One tag per copy: Rluc fusion as donor, eYFP fusion as acceptor; also called IL-10Rβ_FL; full-length IL-10Rβ; source: HEK293, transfected, in living cells

Assays:
[1] = molecular target: IL-10Rβ, full-length subunit of the interleukin 10 receptor (UniProt Q61190); test: FRET or BRET; BRET saturation assay in living HEK293 cells; full-length Rluc-tagged receptor (plasmid constant, 0.75 ng/mL) with increasing eYFP-tagged TM sequence plasmid; HBSS, coelenterazine H 5 µM, 37 °C
[2] = molecular target: IL-10Rα, full-length subunit of the interleukin 10 receptor (UniProt Q61727); test: as above
TM sequence of IL-10Rβ = test: FRET or BRET; BRET saturation assay in living HEK293 cells; TM sequence fused to Rluc (plasmid constant, 0.75 ng/mL) with increasing eYFP-fused TM sequence plasmid, wild type or mutant; HBSS, coelenterazine H 5 µM, 37 °C
TM sequence of IL-10Rα = test: as above
[3] = molecular target: B2; test: FRET or BRET; BRET saturation assay in living HEK293 cells; full-length Rluc donor (plasmid constant, 0.75 ng/mL) with increasing full-length eYFP acceptor plasmid; HBSS, coelenterazine H 5 µM, 37 °C; details: partners not purified
[4] = molecular target: the molecule itself; test: as above
[5] = molecular target: B1; test: as above; details: partners not purified

Molecule	BRET50 [1] [mBu]	BRET50 [2] [mBu]	BRET50 (TM sequence of IL-10Rβ) [mBu]	BRET50 (TM sequence of IL-10Rα) [mBu]	BRET50 [4] [mBu]	also measured
TM sequence of IL-10Rα (domain or fragment)	22	28	109	190		
TM sequence of IL-10Rα with leucine 248 substituted by glycine (domain or fragment)						decrease of BRET50 against the wild-type TM homodimer (TM sequence of IL-10Rα): 27 % decrease
TM sequence of IL-10Rβ (domain or fragment)	35	35	78	141		
B1					28	BRET50 [3]: 28 mBu
B2					152	BRET50 [5]: 86 mBu
